# T1: mDia2N (mDia2 residues 150-533) (UniProt Q9Z207 150-533)
# T1 sequence (looked up): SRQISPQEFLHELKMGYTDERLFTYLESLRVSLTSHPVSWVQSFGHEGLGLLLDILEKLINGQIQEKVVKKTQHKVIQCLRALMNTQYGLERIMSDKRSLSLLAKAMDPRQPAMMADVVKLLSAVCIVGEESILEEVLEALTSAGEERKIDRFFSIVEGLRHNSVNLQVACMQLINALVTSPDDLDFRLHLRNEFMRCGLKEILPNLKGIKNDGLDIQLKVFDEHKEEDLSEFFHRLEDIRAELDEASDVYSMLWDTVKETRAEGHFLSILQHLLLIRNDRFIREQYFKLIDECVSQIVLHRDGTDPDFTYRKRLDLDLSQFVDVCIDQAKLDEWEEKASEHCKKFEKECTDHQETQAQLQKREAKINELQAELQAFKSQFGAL
# T2: mDia3N (mDia3 residues 166-542) (UniProt O70566 166-542)
# T2 sequence (looked up): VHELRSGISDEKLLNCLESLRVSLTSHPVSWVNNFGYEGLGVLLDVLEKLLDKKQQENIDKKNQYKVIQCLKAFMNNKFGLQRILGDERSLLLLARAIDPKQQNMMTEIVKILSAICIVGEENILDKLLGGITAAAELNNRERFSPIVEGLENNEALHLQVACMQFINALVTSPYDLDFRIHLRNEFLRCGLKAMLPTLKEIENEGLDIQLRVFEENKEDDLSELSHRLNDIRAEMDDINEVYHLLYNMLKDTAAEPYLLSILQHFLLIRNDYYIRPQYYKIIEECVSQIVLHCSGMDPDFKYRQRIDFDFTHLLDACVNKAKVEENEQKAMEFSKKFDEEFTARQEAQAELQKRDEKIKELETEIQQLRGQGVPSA
# What was measured:
# [1] = target: T1, mDia2N (mDia2 residues 150-533); experiment: SPR
# [2] = target: T2, mDia3N (mDia3 residues 166-542); experiment: SPR
binder,measurement,setting,value
"GST-anillin (1-91) (domain or fragment, human, UniProt Q9NQW6-2 1-91, looked up) MDPFTEKLLERTRARRENLQRKMAERPTAAPRSMTHAKRARQPLSEASNQQPLSGGEEKSCTKPSPSKKRCSDNTEVEVSNLENKQPVEST",Kd,[1],0.236 µM
same,Kd,[2],1.02 µM
